Reference: publication PMC3657149, “Mig6 Is a Sensor of EGF Receptor Inactivation that Directly Activates c-Abl to Induce Apoptosis during Epithelial Homeostasis” (Developmental Cell, 2012)

Target: immunopurified Abl (UniProt P00519-2 1-1149)
Experiment: cell-based or functional assay

Chain of immunopurified Abl (P00519 other isoform, or with tags, fused parts or gaps): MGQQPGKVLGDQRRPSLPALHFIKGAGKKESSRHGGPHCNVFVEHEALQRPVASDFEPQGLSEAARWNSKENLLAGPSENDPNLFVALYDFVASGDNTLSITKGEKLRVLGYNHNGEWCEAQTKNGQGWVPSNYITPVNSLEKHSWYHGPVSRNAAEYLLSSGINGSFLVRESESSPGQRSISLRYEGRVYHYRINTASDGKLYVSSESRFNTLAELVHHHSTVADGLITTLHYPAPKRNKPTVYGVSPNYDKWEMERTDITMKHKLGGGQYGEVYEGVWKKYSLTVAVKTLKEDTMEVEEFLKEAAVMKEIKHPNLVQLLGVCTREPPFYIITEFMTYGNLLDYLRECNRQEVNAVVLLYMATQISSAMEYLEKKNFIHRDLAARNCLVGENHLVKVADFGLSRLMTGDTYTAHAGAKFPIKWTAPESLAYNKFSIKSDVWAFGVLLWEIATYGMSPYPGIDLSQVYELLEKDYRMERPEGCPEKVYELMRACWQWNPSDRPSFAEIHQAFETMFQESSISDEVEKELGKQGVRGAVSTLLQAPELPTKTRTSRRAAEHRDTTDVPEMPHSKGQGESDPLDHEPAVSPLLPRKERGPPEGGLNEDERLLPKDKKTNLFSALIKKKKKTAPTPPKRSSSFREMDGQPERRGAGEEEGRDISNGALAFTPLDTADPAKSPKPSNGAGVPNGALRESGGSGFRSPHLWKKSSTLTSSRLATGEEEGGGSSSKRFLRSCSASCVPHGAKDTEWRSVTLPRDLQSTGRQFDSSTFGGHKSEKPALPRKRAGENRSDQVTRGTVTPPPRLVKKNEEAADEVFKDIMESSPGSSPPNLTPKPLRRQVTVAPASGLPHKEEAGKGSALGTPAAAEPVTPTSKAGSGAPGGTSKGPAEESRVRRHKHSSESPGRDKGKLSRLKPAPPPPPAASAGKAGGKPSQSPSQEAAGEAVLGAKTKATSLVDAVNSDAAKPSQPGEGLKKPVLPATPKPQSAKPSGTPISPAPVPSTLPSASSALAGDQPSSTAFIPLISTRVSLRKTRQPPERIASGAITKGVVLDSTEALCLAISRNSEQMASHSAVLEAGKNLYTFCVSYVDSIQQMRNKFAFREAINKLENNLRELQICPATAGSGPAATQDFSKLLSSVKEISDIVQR

B1: bacterially produced Mig6 (natural protein, UniProt Q9UJM3 1-462, looked up)
chain: MSIAGVAAQEIRVPLKTGFLHNGRAMGNMRKTYWSSRSEFKNNFLNIDPITMAYSLNSSAQERLIPLGHASKSAPMNGHCFAENGPSQKSSLPPLLIPPSENLGPHEEDQVVCGFKKLTVNGVCASTPPLTPIKNSPSLFPCAPLCERGSRPLPPLPISEALSLDDTDCEVEFLTSSDTDFLLEDSTLSDFKYDVPGRRSFRGCGQINYAYFDTPAVSAADLSYVSDQNGGVPDPNPPPPQTHRRLRRSHSGPAGSFNKPAIRISNCCIHRASPNSDEDKPEVPPRVPIPPRPVKPDYRRWSAEVTSSTYSDEDRPPKVPPREPLSPSNSRTPSPKSLPSYLNGVMPPTQSFAPDPKYVSSKALQRQNSEGSASKVPCILPIIENGKKVSSTHYYLLPERPPYLDKYEKFFREAEETNGGAQIQPLPADCGISSATEKPDSKTKMDLGGHVKRKHLSYVVSP
For B1, the “activation (phosphorylation) of immunopurified Abl in the presence of bacterially produced Mig6” value was 2.2 fold.
